Assay results published in PMC7066533 (Frontiers in Pharmacology, 2020).
Square brackets hold non-standard residues; d marks the D form. βAla = NCCC(=O)O

What was measured:
human mu opioid receptor = target: T1, human mu opioid receptor (human, UniProt P35372 1-400); assay: radioligand binding; displacement of 2.5 nM [3H]DAMGO (MOPr), 2 nM [3H]diprenorphine (DOPr) or 1 nM [3H]U69,593 (KOPr) from membranes of receptor-expressing HEK-293 cells; 25°C, 90 min, 100 mM Tris-HCl, 0.3% BSA; competitor 10^-12 to 10^-4 M; Ki from IC50 by Cheng-Prusoff; conditions: one partner purified
T1 construct: human mu opioid receptor, stably expressed in HEK-293 cells; membrane preparations used; also called hMOPr; MOPr; source: HEK-293 cells stably expressing hMOPr, cell membranes

[1] = target: T2, human delta opioid receptor (human, UniProt P41143 1-372); assay: as above; conditions: one partner purified
T2 construct: human delta opioid receptor, stably expressed in HEK-293 cells; membrane preparations used; also called hDOPr; DOPr; source: HEK-293 cells stably expressing hDOPr, cell membranes

[2] = target: T3, human kappa opioid receptor (human, UniProt P41145 1-380); assay: as above; conditions: one partner purified
T3 construct: human kappa opioid receptor, stably expressed in HEK-293 cells; Functional rows in U87-MG cells and normal human astrocytes (endogenous human KOPr) are also written on this molecule; also called hKOPr; KOPr

[3] = target: T3, human kappa opioid receptor; assay: cell-based or functional assay

cyclo(FG[βAla][dW]) (SMILES O=C1CNC(=O)[C@H](Cc2ccccc2)NC(=O)[C@@H](Cc2c[nH]c3ccccc23)NC(=O)CCN1) [LOR17 (c[Phe-Gly-(β-Ala)-D-Trp])]
Ki (human mu opioid receptor): > 100000 nM | Ki [1]: > 100000 nM | Ki [2]: 1.19 nM | IC50 of inhibition of forskolin-induced cAMP accumulation, HEK-293/KOR cells [3]: 2.8 nM | IC50 of inhibition of forskolin-induced cAMP accumulation, U87-MG cells (endogenous KOPr) [3]: 3.1 nM | IC50 of inhibition of forskolin-induced cAMP accumulation, normal human astrocytes (endogenous KOPr) [3]: 3 nM
